Test results: publication PMC3206438, “Identification and characterization of PhbF: A DNA binding protein with regulatory role in the PHB metabolism of Herbaspirillum seropedicae SmR1” (BMC Microbiology, 2011)

Legend:
[1] = tested on: His-PhbF (Herbaspirillum seropedicae SmR1); experiment: EMSA; conditions: apparent; 100 ng calf thymus DNA; tetramer concentration; EMSA: 10 mM Tris-HCl pH 7.5, 80 mM NaCl, 1 mM EDTA, 10 mM beta-mercaptoethanol, 5% glycerol, 20 nM DNA, 100 ng calf thymus DNA in 10 uL, 30 C 5 min; footprint: …
[2] = target: the molecule itself; experiment: SEC; gel filtration chromatography of purified His-PhbF; apparent molecular weight 104.3 kDa; conditions not told in the main text (Additional file 1, Figure S2)

phaP1 promoter
Kd [1]: 150 nM

phbF promoter (EMSA)
Kd [1]: 450 nM

B1: His-PhbF (H. seropedicae SmR1 PhbF protein fused to an N-terminal six-histidine tag) (natural protein, Herbaspirillum seropedicae SmR1, UniProt D8J0C9 1-188, looked up)
chain: MTTAKNSADRLIKKYPNRRLYDTQTSSYITLTDVKQLVLDNEEFTVVDAKSGDDLTRSILLQIILEEESHGVPMFSSGALSQIIRYYGHAMQGMMGNYLEKNIQTFIDIQNKLAENSKGFYEGKPFSPEMWTQFMNVQGPMMQGMMSNYIEQSKNLFIQMQEQMQSQTKNMFGTFPFGNPGAGPDQKK
notes: the phbF gene was amplified from the genome and cloned into pET-28a (pKADO3); The pET-28a vector residues between the His tag and the protein are not described; also called His-tag PhbF protein; source: E. coli BL21(DE3) carrying pKADO3, purified (Hi-Trap Chelating Ni2+ column); not shown: His6, N-terminal, kept
stoichiometry N [2]: 4
